Experimental data taken from patent US20190263889A1.
Values joined by “and” are separate entries in the source; they are usually repeats but may differ in a detail not shown here. Identical values can stand only once.

Key:
[1] = biological target: CTLA-4Fc mutant protein M1 (human (murine residues substituted)); assay: ELISA; binder 10 ng/ml on coated target
[2] = biological target: CTLA-4Fc mutant protein M10 (human (murine residues substituted)); assay: ELISA; binder 10 ng/ml on coated target
CTLA-4Fc mutant protein M10 (human (murine residues substituted)), sequence (chain, as listed by the source mutant): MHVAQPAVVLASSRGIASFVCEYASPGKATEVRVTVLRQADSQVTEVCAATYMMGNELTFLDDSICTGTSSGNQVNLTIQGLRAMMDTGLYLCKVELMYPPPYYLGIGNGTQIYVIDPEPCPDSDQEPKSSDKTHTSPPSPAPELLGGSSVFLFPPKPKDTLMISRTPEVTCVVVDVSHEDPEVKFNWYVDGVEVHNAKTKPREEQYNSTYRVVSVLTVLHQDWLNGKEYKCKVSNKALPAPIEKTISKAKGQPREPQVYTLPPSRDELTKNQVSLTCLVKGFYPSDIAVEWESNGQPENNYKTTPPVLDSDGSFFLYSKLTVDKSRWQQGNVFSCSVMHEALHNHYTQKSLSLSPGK

[3] = biological target: CTLA-4Fc mutant protein M11 (human (murine residues substituted)); assay: ELISA; binder 10 ng/ml on coated target
CTLA-4Fc mutant protein M11 (human (murine residues substituted)), sequence (chain, as listed by the source mutant): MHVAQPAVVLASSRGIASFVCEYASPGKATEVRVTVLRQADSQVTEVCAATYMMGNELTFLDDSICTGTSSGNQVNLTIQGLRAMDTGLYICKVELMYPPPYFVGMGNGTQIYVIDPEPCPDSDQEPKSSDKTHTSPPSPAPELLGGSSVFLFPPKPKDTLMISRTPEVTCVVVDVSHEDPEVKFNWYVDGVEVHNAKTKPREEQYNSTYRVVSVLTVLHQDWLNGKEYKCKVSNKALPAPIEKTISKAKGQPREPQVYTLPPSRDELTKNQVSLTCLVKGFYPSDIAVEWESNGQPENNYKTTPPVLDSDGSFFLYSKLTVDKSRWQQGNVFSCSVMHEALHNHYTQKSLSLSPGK

[4] = biological target: CTLA-4Fc mutant protein M2 (human (murine residues substituted)); assay: ELISA; binder 10 ng/ml on coated target
CTLA-4Fc mutant protein M2 (human (murine residues substituted)), sequence (chain, as listed by the source mutant): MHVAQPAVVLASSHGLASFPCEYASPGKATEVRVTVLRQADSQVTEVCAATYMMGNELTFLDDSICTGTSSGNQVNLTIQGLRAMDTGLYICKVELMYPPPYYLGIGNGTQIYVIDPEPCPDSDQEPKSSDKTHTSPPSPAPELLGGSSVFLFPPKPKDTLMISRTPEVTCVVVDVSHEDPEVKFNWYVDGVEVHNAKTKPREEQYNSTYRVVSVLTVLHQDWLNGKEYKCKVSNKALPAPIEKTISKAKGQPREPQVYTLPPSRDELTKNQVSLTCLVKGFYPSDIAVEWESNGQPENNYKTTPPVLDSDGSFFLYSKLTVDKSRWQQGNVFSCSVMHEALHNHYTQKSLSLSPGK

[5] = biological target: CTLA-4Fc mutant protein M3 (human (murine residues substituted)); assay: ELISA; binder 10 ng/ml on coated target
CTLA-4Fc mutant protein M3 (human (murine residues substituted)), sequence (chain, as listed by the source mutant): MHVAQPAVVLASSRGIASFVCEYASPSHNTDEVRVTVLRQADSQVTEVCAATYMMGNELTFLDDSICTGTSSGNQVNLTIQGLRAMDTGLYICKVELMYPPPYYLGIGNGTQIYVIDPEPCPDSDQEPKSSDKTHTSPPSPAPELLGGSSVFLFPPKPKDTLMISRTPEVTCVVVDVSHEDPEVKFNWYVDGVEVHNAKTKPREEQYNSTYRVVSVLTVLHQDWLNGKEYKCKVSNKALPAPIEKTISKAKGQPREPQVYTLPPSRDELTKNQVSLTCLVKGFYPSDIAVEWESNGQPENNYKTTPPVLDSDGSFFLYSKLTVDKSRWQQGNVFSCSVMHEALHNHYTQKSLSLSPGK

[6] = biological target: CTLA-4Fc mutant protein M4 (human (murine residues substituted)); assay: ELISA; binder 10 ng/ml on coated target
CTLA-4Fc mutant protein M4 (human (murine residues substituted)), sequence (chain, as listed by the source mutant): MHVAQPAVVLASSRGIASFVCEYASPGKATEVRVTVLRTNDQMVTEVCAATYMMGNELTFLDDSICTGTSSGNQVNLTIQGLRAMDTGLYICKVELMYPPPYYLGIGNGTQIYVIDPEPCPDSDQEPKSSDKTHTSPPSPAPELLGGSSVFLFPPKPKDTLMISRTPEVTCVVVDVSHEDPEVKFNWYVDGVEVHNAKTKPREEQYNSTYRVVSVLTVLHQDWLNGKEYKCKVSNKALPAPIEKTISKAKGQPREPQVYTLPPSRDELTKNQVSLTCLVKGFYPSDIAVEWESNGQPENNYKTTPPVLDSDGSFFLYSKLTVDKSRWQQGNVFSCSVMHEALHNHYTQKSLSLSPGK

[7] = biological target: CTLA-4Fc mutant protein M5 (human (murine residues substituted)); assay: ELISA; binder 10 ng/ml on coated target
CTLA-4Fc mutant protein M5 (human (murine residues substituted)), sequence (chain, as listed by the source mutant): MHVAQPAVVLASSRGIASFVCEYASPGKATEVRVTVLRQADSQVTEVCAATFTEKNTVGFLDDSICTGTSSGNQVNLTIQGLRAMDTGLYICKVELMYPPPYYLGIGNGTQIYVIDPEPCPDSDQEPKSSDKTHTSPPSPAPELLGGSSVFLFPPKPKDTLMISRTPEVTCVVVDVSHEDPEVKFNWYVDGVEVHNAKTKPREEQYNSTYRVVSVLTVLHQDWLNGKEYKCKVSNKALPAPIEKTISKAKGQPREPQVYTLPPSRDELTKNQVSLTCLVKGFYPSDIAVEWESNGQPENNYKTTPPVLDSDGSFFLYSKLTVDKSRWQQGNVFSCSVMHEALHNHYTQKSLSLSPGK

[8] = biological target: CTLA-4Fc mutant protein M6 (human (murine residues substituted)); assay: ELISA; binder 10 ng/ml on coated target
CTLA-4Fc mutant protein M6 (human (murine residues substituted)), sequence (chain, as listed by the source mutant): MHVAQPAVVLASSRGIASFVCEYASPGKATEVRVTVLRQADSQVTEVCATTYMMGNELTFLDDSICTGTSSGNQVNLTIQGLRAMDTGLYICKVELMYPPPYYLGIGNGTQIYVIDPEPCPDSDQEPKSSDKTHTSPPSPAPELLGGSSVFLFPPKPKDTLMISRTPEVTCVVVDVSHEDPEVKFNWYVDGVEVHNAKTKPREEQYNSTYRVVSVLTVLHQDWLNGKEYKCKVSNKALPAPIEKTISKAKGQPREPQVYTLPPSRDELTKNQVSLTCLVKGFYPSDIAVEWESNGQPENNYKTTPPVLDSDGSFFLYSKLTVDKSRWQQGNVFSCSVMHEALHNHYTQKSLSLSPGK

[9] = biological target: CTLA-4Fc mutant protein M7 (human (murine residues substituted)); assay: ELISA; binder 10 ng/ml on coated target
CTLA-4Fc mutant protein M7 (human (murine residues substituted)), sequence (chain, as listed by the source mutant): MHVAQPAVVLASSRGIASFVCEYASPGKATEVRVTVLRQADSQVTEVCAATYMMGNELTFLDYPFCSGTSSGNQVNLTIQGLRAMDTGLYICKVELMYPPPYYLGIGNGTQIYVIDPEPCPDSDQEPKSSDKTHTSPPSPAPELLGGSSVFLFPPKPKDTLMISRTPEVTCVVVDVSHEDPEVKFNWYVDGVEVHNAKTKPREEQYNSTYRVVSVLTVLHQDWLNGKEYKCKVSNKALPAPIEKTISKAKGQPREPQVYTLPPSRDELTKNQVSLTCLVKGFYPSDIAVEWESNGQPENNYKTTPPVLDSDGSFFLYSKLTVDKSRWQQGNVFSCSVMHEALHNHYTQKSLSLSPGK

[10] = biological target: CTLA-4Fc mutant protein M8 (human (murine residues substituted)); assay: ELISA; binder 10 ng/ml on coated target
CTLA-4Fc mutant protein M8 (human (murine residues substituted)), sequence (chain, as listed by the source mutant): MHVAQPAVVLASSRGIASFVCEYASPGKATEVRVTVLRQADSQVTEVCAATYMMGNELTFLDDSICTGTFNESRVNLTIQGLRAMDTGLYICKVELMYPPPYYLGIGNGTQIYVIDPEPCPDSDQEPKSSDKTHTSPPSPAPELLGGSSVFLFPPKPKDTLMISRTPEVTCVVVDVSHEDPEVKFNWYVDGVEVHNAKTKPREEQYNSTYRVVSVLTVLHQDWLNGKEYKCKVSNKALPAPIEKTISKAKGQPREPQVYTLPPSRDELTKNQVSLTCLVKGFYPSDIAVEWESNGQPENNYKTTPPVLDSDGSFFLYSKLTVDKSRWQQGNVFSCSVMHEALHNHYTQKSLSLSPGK

[11] = biological target: CTLA-4Fc mutant protein M9 (human (murine residues substituted)); assay: ELISA; binder 10 ng/ml on coated target
CTLA-4Fc mutant protein M9 (human (murine residues substituted)), sequence (chain, as listed by the source mutant): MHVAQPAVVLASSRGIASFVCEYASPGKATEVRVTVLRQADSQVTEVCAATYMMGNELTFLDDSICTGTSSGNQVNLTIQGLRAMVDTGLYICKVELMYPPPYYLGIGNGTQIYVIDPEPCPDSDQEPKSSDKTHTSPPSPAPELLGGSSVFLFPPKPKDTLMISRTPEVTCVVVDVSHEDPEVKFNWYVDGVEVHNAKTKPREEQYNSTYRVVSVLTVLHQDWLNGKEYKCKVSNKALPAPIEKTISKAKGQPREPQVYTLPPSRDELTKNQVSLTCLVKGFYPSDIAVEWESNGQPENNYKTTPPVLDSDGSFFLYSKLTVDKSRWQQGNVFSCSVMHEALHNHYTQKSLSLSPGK

[12] = biological target: human IgG1-Fc control (human) [IgG part: P01857]; assay: ELISA; binder 10 ng/ml on coated target
[13] = biological target: mouse CTLA-4-Fc (mouse) (UniProt P09793); assay: ELISA; binder 10 ng/ml on coated target
mouse CTLA-4-Fc (mouse), sequence (P09793 36-161 limits assumed): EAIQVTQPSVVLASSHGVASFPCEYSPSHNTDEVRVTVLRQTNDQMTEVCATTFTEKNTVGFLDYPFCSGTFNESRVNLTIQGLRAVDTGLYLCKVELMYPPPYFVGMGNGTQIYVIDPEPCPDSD

[14] = biological target: wild type human CTLA-4Fc fusion protein (abatacept) (human); assay: ELISA; binder 10 ng/ml on coated target
wild type human CTLA-4Fc fusion protein (abatacept) (human), sequence (chain, as listed by the source limits assumed): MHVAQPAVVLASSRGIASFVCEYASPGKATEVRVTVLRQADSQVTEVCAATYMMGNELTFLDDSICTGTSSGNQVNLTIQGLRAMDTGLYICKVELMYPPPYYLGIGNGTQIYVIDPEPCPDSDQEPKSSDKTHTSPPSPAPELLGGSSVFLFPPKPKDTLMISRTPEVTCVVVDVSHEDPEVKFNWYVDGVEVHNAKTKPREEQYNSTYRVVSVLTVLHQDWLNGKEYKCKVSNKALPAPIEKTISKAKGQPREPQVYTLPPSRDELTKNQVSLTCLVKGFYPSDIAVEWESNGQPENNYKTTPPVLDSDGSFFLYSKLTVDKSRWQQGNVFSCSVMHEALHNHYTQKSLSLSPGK

[15] = biological target: CTLA-4Fc mutant protein M1 (human (murine residues substituted)); assay: ELISA; binder 100 ng/ml on coated target
[16] = biological target: CTLA-4Fc mutant protein M10 (human (murine residues substituted)); assay: ELISA; binder 100 ng/ml on coated target
[17] = biological target: CTLA-4Fc mutant protein M11 (human (murine residues substituted)); assay: ELISA; binder 100 ng/ml on coated target
[18] = biological target: CTLA-4Fc mutant protein M2 (human (murine residues substituted)); assay: ELISA; binder 100 ng/ml on coated target
[19] = biological target: CTLA-4Fc mutant protein M3 (human (murine residues substituted)); assay: ELISA; binder 100 ng/ml on coated target
[20] = biological target: CTLA-4Fc mutant protein M4 (human (murine residues substituted)); assay: ELISA; binder 100 ng/ml on coated target
[21] = biological target: CTLA-4Fc mutant protein M5 (human (murine residues substituted)); assay: ELISA; binder 100 ng/ml on coated target
[22] = biological target: CTLA-4Fc mutant protein M6 (human (murine residues substituted)); assay: ELISA; binder 100 ng/ml on coated target
[23] = biological target: CTLA-4Fc mutant protein M7 (human (murine residues substituted)); assay: ELISA; binder 100 ng/ml on coated target
[24] = biological target: CTLA-4Fc mutant protein M8 (human (murine residues substituted)); assay: ELISA; binder 100 ng/ml on coated target
[25] = biological target: CTLA-4Fc mutant protein M9 (human (murine residues substituted)); assay: ELISA; binder 100 ng/ml on coated target
[26] = biological target: wild type human CTLA-4Fc fusion protein (abatacept) (human); assay: ELISA; binder 100 ng/ml on coated target
[27] = biological target: CTLA-4Fc mutant protein M1 (human (murine residues substituted)); assay: ELISA; binder 0 (blank) on coated target
[28] = biological target: CTLA-4Fc mutant protein M2 (human (murine residues substituted)); assay: ELISA; binder 0 (blank) on coated target
[29] = biological target: CTLA-4Fc mutant protein M4 (human (murine residues substituted)); assay: ELISA; binder 0 (blank) on coated target
[30] = biological target: CTLA-4Fc mutant protein M7 (human (murine residues substituted)); assay: ELISA; binder 0 (blank) on coated target
[31] = biological target: CTLA-4Fc mutant protein M9 (human (murine residues substituted)); assay: ELISA; binder 0 (blank) on coated target
[32] = biological target: human IgG1-Fc control (human) [IgG part: P01857]; assay: ELISA; binder 0 (blank) on coated target
[33] = biological target: mouse CTLA-4-Fc (mouse) (UniProt P09793); assay: ELISA; binder 0 (blank) on coated target
[34] = biological target: CTLA-4Fc mutant protein M10 (human (murine residues substituted)); assay: ELISA; binder 1000 ng/ml on coated target
[35] = biological target: CTLA-4Fc mutant protein M2 (human (murine residues substituted)); assay: ELISA; binder 1000 ng/ml on coated target
[36] = biological target: CTLA-4Fc mutant protein M5 (human (murine residues substituted)); assay: ELISA; binder 1000 ng/ml on coated target
[37] = biological target: CTLA-4Fc mutant protein M6 (human (murine residues substituted)); assay: ELISA; binder 1000 ng/ml on coated target
[38] = biological target: CTLA-4Fc mutant protein M7 (human (murine residues substituted)); assay: ELISA; binder 1000 ng/ml on coated target
[39] = biological target: CTLA-4Fc mutant protein M8 (human (murine residues substituted)); assay: ELISA; binder 1000 ng/ml on coated target
[40] = biological target: human IgG1-Fc control (human) [IgG part: P01857]; assay: ELISA; binder 1000 ng/ml on coated target
[41] = biological target: mouse CTLA-4-Fc (mouse) (UniProt P09793); assay: ELISA; binder 1000 ng/ml on coated target
[42] = biological target: wild type human CTLA-4Fc fusion protein (abatacept) (human); assay: ELISA; binder 1000 ng/ml on coated target
[43] = biological target: human CTLA-4 (form in the blocking assay not stated) (human) (UniProt P16410); assay: blocking of B7-CTLA-4 interaction; format not stated, no data shown
human CTLA-4 (form in the blocking assay not stated) (human), sequence (P16410 36-223 limits assumed): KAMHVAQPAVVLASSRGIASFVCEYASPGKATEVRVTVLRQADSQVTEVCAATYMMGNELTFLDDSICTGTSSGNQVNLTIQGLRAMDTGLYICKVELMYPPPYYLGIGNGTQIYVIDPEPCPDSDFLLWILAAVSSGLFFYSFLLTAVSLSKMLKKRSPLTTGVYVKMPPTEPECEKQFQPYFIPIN

CTLA-4Fc mutant protein M1 (human (murine residues substituted)), sequence (chain, as listed by the source mutant): as the sequence (chain, as listed by the source limits assumed) above, with M1I, H2Q, A4T, A7S counted along it

## chimeric L3D10 anti-human CTLA-4 antibody
[1]
  OD450: 2.69 OD450 and 2.78 OD450
[2]
  OD450: 0.157 OD450
[3]
  OD450: 0.19 OD450 and 0.194 OD450
[4]
  OD450: 0.469 OD450 and 0.333 OD450
[5]
  OD450: 0.623 OD450 and 0.593 OD450
[6]
  OD450: 0.817 OD450 and 0.563 OD450
[7]
  OD450: 1.85 OD450 and 1.8 OD450
[8]
  OD450: 1.24 OD450 and 1.88 OD450
[9]
  OD450: 0.837 OD450 and 0.884 OD450
[10]
  OD450: 1.27 OD450 and 1.45 OD450
[11]
  OD450: 0.158 OD450 and 0.213 OD450
[12]
  OD450: 0.201 OD450 and 0.182 OD450
[13]
  OD450: 0.201 OD450 and 0.18 OD450
[14]
  OD450: 1.71 OD450 and 1.8 OD450
[15]
  OD450: 3.25 OD450 and 3.24 OD450
[16]
  OD450: 0.215 OD450 and 0.216 OD450
[17]
  OD450: 0.635 OD450 and 0.759 OD450
[18]
  OD450: 1.38 OD450 and 1.16 OD450
[19]
  OD450: 2.32 OD450 and 2.35 OD450
[20]
  OD450: 2.14 OD450 and 1.41 OD450
[21]
  OD450: 2.84 OD450 and 2.99 OD450
[22]
  OD450: 2.7 OD450 and 2.77 OD450
[23]
  OD450: 2.5 OD450 and 2.48 OD450
[24]
  OD450: 2.91 OD450 and 2.84 OD450
[25]
  OD450: 0.295 OD450 and 0.304 OD450
[26]
  OD450: 3.05 OD450 and 3.02 OD450
[27]
  OD450: 0.222 OD450
[28]
  OD450: 0.377 OD450 and 0.538 OD450
[29]
  OD450: 0.22 OD450 and 0.18 OD450
[30]
  OD450: 0.186 OD450 and 0.142 OD450
[31]
  OD450: 0.15 OD450 and 0.293 OD450
[32]
  OD450: 0.198 OD450 and 0.184 OD450
[33]
  OD450: 0.19 OD450 and 0.189 OD450
[34]
  OD450: 0.945 OD450 and 0.941 OD450
[35]
  OD450: 2.83 OD450 and 2.75 OD450
[36]
  OD450: 3.41 OD450 and 3.54 OD450
[37]
  OD450: 3.28 OD450 and 3.32 OD450
[38]
  OD450: 3.3 OD450 and 3.35 OD450
[39]
  OD450: 3.35 OD450 and 3.44 OD450
[40]
  OD450: 1.39 OD450 and 1.47 OD450
[41]
  OD450: 0.942 OD450 and 0.94 OD450
[42]
  OD450: 3.57 OD450 and 3.67 OD450
[43]
  fold higher B7 blocking activity than 10D1: 1000 fold
